Positions count from the first letter of the chain named.
Experiments:
[1] = tested on: total protein ubiquitination; test: Total ubiquitination in N. benthamiana expressing CUL3 and NPR1 or sim3; type: cell-based, Nicotiana benthamiana
Description: Protein analysis and IP. Recombinant protein analysis was performed using transient expression in N. benthamiana, or stable over-expression in transgenic Arabidopsis, or expression in E. coli. Total protein extraction from plants was performed by homogenizing leaf tissue in the plant extraction buffer [50 mM Tris-HCl (pH 7.5), 150 mM NaCl, 5 mM EDTA, 0.2% Triton X-100, 0.2% Nonidet P-40] supplemented with 1 mM PMSF, 100 μM MG132, and EDTA-free protease inhibitor cocktail (Roche). For ubiquitinated protein analysis in plants, 100 μM of DUB (deubiquitinase) inhibitor (LifeSensors) and 10 mM NEM were added. Next, the lysates were cleared by centrifugation at 14,000 rpm for 15 min followed by filtering through a 0.2 μm filter. […] Pull-downs or IP experiments were done on total protein extracts by incubating protein samples in the lysis buffer overnight with indicated affinity tag or antibody conjugated to agarose or magnetic beads: GFP-trap agarose beads (Chromotek) for GFP fusions; RFP-trap agarose beads (Chromotek) for mCherry fusions; anti-HA magnetic beads (ThermoFisher) for HA tag fusions; anti-DYKDDDDK coupled magnetic agarose (ThermoFisher) for FLAG tag fusions; and glutathione magnetic agarose (ThermoFisher) for GST fusions. Unless otherwise indicated, after pull-down/IP, beads were washed 3 times and proteins were eluted by boiling in the 2×SDS sample buffer. […]

CUL3 = test: BiFC assay of interaction with CUL3; type: cell-based, Arabidopsis thaliana; settings: 1 mM SA for 5 hr
Description: Plasmid construction and E. coli-based ubiquitination: The coding sequences for all Arabidopsis genes were amplified from cDNA. Point mutations of AtNPR1 (AT1G64280) were generated using the QuikChange II site-directed mutagenesis kit (Agilent). Overlap PCR was used to generate the deletion/truncation mutations of AtCUL3A (AT1G26830) and AtNPR1. The WT and mutated coding sequences for all genes and gene fusions were sub-cloned into the pDONR207 gateway donor vector and confirmed by sequencing. The obtained entry vectors were recombined into either plant or E. coli destination vectors without or with an N- or C-terminal tag. For in planta expression, genes were recombined into the plant binary vectors pK7FWG2, pSITE-4NB and pLN462 to generate C-terminal eGFP, mCherry and HA fusions, respectively; into pK7WGF2, pEG201, pEG202, pEG203 and pEG204 to generate N-terminal eGFP, HA, FLAG, Myc and V5 fusions, respectively. For co-expression of NPR1 and CUL3 in E. coli, NPR1 or its mutant/truncation variants were first recombined into pDEST15 vector to generate N-terminal GST fusions (GST-NPR1). Next, E. coli-codon-optimized coding sequence of AtCUL3A fused to the Myc tag was amplified from pEG203-CUL3 and inserted between NdeI and XhoI in the MCS-II of pCDFDuet-1 to generate pCDFDuet-1:Myc-CUL3 plasmid. The two plasmids, pDEST15-NPR1 and pCDFDuet-1:Myc-CUL3, were co-transformed into the E. coli strain BL21(DE3) and protein expression was induced with 0.25 mM IPTG for 12 hr at 20° C. For co-expression of NPR1 and EDS1 in E. coli, the coding sequence of AtEDS1 (AT3G48090) fused to FLAG tag was inserted between NcoI and NotI in MCS-I of pETDuet-1 to first generate the pETDuet-1:FLAG-EDS1 plasmid. […] For bimolecular fluorescence complementation (BiFC), entry vectors carrying the coding sequences of genes and their mutant variants were recombined into the pSITE-cEYFP-N1 binary vector for C-terminal fusion with the cYFP half (YC), or into the pSITE-nEYFP-C1 for N-terminal fusion with the nYFP half (YN). […]

## O=C(O)c1ccccc1O [SA, salicylic acid]
[1]; 3 mM SA
  total protein ubiquitination under dose response to SA: reduction in ubiquitination

## NPR1: wild-type Arabidopsis thaliana NPR1 protein, positive regulator of systemic acquired resistance
CUL3
  BiFC signal of interaction with CUL3: clear interactions with CUL3 in discrete cytoplasmic condensates

B1: sim3: SUMOylation-deficient mutant of NPR1 (protein)
chain: MDTTIDGFADSYEISSTSFVATDNTDSSIVYLAAEQVLTGPDVSALQLLSNSFESVFDSPDDFYSDAKLVLSDGREVSFHRCVLSARSSFFKSALAAAKKEKDSNNTAAVKLELKEIAKDYEVGFDSVVTVLAYVYSSRVRPPPKGVSECADENCCHVACRPAVDFMLEVLYLAFIFKIPELITLYQRHLLDVVDKVVIEDTLVILKLANICGKACMKLLDRCKEIIVKSNVDMVSLEKSLPEELVKEIIDRRKELGLEVPKVKKHVSNVHKALDSDDIELVKLLLKEDHTNLDDACALHFAVAYCNVKTATDLLKLDLADVNHRNPRGYTVLHVAAMRKEPQLAASALEKGASASEATLEGRTALMIAKQATMAVECNNIPEQCKHSLKGRLCVEILEQEDKREQIPRDVPPSFAVAADELKMTLLDLENRVALAQRLFPTEAQAAMEIAEMKGTCEFIVTSLEPDRLTGTKRTSPGVKIAPFRILEEHQSRLKALSKTVELGKRFFPRCSAVLDQIMNCEDLTQLACGEDDTAEKRLQKKQRYMEIQETLKKAFSEDNLELGNSSLTDSTSSTSKSTGGKRSNRKLSHRRR
modifications: left off: small tags and cut ends
notes: SUMOylation-deficient mutant of NPR1
[1]; compared with NPR1
  baseline SA-dependent ubiquitination: lower
CUL3
  BiFC signal of interaction with CUL3: more intense

B2: S55/59D: phosphomimic mutant of NPR1 at S55/59 (protein)
chain: B1 chain with S55D, S59D, A345I, A346L, A348L
modifications: left off: small tags and cut ends
CUL3
  BiFC signal of interaction with CUL3: significantly weaker BiFC signal
